According to paper PMC8163800, “Extreme parsimony in ATP consumption by 20S complexes in the global disassembly of single SNARE complexes” (Nature Communications, 2021):

B1: NSF-SNAP tag (wild-type NSF with a C-terminal SNAP tag), labelled hexamer (enzyme, Chinese hamster)
chain: MAGRSMQAARCPTDELSLSNCAVVSEKDYQSGQHVIVRTSPNHKYIFTLRTHPSVVPGSVAFSLPQRKWAGLSIGQEIEVALYSFDKAKQCIGTMTIEIDFLQKKNIDSNPYDTDKMAAEFIQQFNNQAFSVGQQLVFSFNDKLFGLLVKDIEAMDPSILKGEPASGKRQKIEVGLVVGNSQVAFEKAENSSLNLIGKAKTKENRQSIINPDWNFEKMGIGGLDKEFSDIFRRAFASRVFPPEIVEQMGCKHVKGILLYGPPGCGKTLLARQIGKMLNAREPKVVNGPEILNKYVGESEANIRKLFADAEEEQRRLGANSGLHIIIFDEIDAICKQRGSMAGSTGVHDTVVNQLLSKIDGVEQLNNILVIGMTNRPDLIDEALLRPGRLEVKMEIGLPDEKGRLQILHIHTARMRGHQLLSADVDIKELAVETKNFSGAELEGLVRAAQSTAMNRHIKASTKVEVDMEKAESLQVTRGDFLASLENDIKPAFGTNQEDYASYIMNGIIKWGDPVTRVLDDGELLVQQTKNSDRTPLVSVLLEGPPHSGKTALAAKIAEESNFPFIKICSPDKMIGFSETAKCQAMKKIFDDAYKSQLSCVVVDDIERLLDYVPIGPRFSNLVLQALLVLLKKAPPQGRKLLIIGTTSRKDVLQEMEMLNAFSTTIHVPNIATGEQLLEALELLGNFKDKERTTIAQQVKGKKVWIGIKKLLMLIEMSLQMDPEYRVRKFLALLREEGASPLDFD
modifications: BG-Alexa647 or BG-DY549 dye on the SNAP tag
notes: N-ethylmaleimide sensitive factor (NSF), Chinese hamster, wild type; also called DY549-labeled NSF; SNAP-tag-labeled WT; source: expressed from pET28a in autoinduction LB medium, purified (Ni-NTA, Superdex 200); not shown: SNAP tag (GGSG linker), C-terminal, kept
B2: SNAP-tag-αSNAP labelled with BG-Alexa647 (natural protein, bovine, UniProt P81125 1-295, looked up)
chain: MDNSGKEAEAMALLAEAERKVKNSQSFFSGLFGGSSKIEEACEIYARAANMFKMAKNWSAAGSAFCQAAHVHLQLQSKHDAATCFVDAGNAFKKADPQEAINCLMRAIEIYTDMGRFTIAAKHHISIAEIYETELVDIEKAIAHYEQSADYYKGEESNSSANKCLLKVAGYAAQLEQYQKAIDIYEQVGTNAMDSPLLKYSAKDYFFKAALCHFCIDMLNAKLAVQKYEELFPAFSDSRECKRIKKLLEAHEEQNVDSYTEAVKEYDSISRLDQWLTTMLLRIKKTIQGDEEDLR
modifications: BG-Alexa647 dye on the SNAP tag
notes: alpha-soluble NSF attachment protein (αSNAP), bovine; also called SNAP-tag-fused αSNAPs; Alexa647-labeled αSNAP; source: expressed in LB medium with IPTG, purified (Ni-NTA, Superdex 200); not shown: SNAP tag (GGSGGSG linker), N-terminal, kept

Columns and labels:
[1] = target: the molecule itself; assay: SEC; Superdex 200 16/600 in NSF buffer (50 mM HEPES pH 7.4, 150 mM NaCl, 1 mM DTT, 1 mM ATP, 1 mM EDTA, 10% glycerol)
[2] = target: B1; assay: single-molecule fluorescence co-localisation with counting of photobleaching steps (TIRF); SNARE vesicles (1:30,000 protein/lipid) held on NeutrAvidin; 100 nM SNAP-tag-αSNAP, then 1 nM Dylight549-labelled NSF with 1 mM ATP and 1 mM EDTA; H50N50 buffer; settings: both partners purified

Row | Binder | stoichiometry N [1] | binding result [2]
1 | B1 | 6 | –
2 | B2 | – | binds
